According to US20220017635A1 (Kyowa Kirin, published 2022):
Where a chain is given by its changes, count along the chain named. Names may count otherwise.

Tests used:
[1] = biological target: T1, huTfR with mouse apical domain (human/mouse chimera, UniProt P02786 89-760); test: ELISA on immobilized chimeric TfR
T1 construct: His tag added; also called chimeric protein of human TfR extracellular domain with mouse apical domain
T1 chain: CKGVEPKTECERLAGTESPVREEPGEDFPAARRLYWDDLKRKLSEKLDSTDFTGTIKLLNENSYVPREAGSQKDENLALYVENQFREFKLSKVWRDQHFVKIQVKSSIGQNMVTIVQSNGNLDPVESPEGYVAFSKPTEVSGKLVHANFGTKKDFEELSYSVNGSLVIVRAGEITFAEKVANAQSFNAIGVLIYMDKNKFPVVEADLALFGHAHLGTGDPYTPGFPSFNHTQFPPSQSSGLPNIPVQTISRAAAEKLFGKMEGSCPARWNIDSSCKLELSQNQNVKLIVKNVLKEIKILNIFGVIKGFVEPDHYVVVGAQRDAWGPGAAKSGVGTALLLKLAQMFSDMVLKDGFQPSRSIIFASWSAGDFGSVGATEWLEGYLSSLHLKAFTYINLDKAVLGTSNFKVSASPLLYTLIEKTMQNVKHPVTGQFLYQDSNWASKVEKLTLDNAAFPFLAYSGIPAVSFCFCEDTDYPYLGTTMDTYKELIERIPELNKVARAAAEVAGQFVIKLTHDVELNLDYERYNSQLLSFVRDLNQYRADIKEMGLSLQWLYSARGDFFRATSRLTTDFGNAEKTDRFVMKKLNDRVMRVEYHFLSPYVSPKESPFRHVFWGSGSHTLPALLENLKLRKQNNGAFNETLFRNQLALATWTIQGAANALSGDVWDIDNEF
Procedure: (§1) ELISA was carried out by the following method. To a 96-well immunoplate (NUNC, Inc.) on which an antigen protein was immobilized, 1% (w/v) BSA-PBS(−) pH 7.0 without KCl (hereinafter referred to as blocking solution, Nacalai Tesque, Inc.) was added to perform blocking at room temperature, and thereafter, the anti-TfR antibody diluted with the same solution was added thereto and a reaction was allowed to proceed at room temperature for 1 hour. Thereafter, washing was performed with 0.05% (w/v)-tPBS (1×) without KCl (pH 7.2) (hereinafter referred to as washing solution, Nacalai Tesque, Inc.), Anti-Human IgG (Fc) Goat IgG Fab″-HRP (IBL, Inc.) diluted with the blocking solution was added thereto, and a reaction was allowed to proceed at room temperature for 1 hour. Thereafter, washing was performed with the washing solution, and 1-Step (registered trademark) Ultra TMB-ELISA Substrate Solution (Thermo, Inc.) was added thereto, and a reaction was allowed to proceed at room temperature. The coloring reaction was stopped by adding a 5 N HCl solution, and an absorbance at a wavelength of 450 nm (reference wavelength: 570 nm) was measured using a plate reader (EPOCH 2: BioTek Instruments, Inc.).
(§2) Further, a value obtained by subtracting the absorbance at the reference wavelength of 570 nm from the absorbance at a wavelength of 450 nm was regarded as the binding activity to any of various types of antigen proteins, and a case where a value obtained by dividing the binding activity to any of various types of chimeric TfR by the binding activity to His-huTfR was 0.5 or more was denoted by ++, a case where the value was 0.2 or more and less than 0.5 was denoted by +, and a case where the value was less than 0.2 was denoted by −.

[2] = biological target: T2, chimeric TfR A02 (human/mouse chimera, UniProt P02786 89-760); test: ELISA on immobilized chimeric TfR
T2 construct: also called D352S-S355A-D356R-K358N
T2 chain: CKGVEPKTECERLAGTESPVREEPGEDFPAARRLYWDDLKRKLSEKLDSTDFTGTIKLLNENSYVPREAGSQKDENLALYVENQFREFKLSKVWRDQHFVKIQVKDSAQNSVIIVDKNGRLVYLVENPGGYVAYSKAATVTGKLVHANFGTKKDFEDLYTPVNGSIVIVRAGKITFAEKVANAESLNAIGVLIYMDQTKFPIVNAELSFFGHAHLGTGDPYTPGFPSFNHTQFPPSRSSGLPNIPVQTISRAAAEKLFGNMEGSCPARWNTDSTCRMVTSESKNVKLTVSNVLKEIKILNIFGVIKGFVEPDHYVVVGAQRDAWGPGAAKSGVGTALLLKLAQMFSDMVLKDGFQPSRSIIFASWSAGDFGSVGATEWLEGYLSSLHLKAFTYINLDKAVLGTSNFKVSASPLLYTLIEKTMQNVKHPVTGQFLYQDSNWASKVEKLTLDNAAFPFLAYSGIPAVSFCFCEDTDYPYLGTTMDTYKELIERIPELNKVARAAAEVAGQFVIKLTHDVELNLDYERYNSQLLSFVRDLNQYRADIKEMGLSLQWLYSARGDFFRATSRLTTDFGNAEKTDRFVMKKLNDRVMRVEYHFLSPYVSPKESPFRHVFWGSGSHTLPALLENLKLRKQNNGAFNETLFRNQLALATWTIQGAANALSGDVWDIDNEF
Procedure: as §1, §2

[3] = biological target: T3, chimeric TfR A07 (human/mouse chimera, UniProt P02786 89-760); test: ELISA on immobilized chimeric TfR
T3 construct: also called M365L-V366E-E369Q
Procedure: as §1, §2

[4] = biological target: T4, monkey TfR on CHO cells (monkey); test: flow cytometry of monoclonal phage (scFv) on monkey TfR/CHO cells
T4 construct: also called monkey TfR/CHO cells
T4 chain: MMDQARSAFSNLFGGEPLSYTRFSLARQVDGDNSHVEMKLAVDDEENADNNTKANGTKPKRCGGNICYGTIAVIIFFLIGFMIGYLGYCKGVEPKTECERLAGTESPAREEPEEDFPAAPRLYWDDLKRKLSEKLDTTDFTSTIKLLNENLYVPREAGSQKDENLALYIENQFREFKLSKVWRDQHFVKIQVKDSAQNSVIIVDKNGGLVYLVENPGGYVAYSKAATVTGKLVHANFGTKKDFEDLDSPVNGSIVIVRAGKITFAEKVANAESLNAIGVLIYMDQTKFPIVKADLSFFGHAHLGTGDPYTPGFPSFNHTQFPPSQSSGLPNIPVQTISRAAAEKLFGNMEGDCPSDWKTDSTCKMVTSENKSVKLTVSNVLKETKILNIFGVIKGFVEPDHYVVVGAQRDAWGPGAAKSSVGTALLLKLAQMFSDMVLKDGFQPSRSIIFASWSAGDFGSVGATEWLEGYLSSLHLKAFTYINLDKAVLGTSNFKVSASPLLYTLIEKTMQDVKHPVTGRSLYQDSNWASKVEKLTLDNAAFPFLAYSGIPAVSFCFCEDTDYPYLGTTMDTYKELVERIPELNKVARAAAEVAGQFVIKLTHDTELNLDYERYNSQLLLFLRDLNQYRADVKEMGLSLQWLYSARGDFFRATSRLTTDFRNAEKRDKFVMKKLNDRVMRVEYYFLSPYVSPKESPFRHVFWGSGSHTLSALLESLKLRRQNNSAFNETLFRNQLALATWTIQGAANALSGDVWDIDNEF
Procedure: (§3) After the reaction was allowed to proceed under 4° C. for 30 minutes, each well was washed 3 times with PBS-T.

[5] = biological target: T5, chimeric TfR A14 (human/mouse chimera, UniProt P02786 89-760); test: ELISA on immobilized chimeric TfR; grade = binding relative to His-huTfR (++ 0.5 or more, + 0.2 to less than 0.5)
T5 construct: also called D204Q-K205S-E369Q
Procedure: as §1, §2

[6] = biological target: T6, chimeric TfR A04 (human/mouse chimera, UniProt P02786 89-760); test: as above
T6 construct: also called D245E-K261E-D356R
Procedure: as §1, §2

[7] = biological target: T7, chimeric TfR A05 (human/mouse chimera, UniProt P02786 89-760); test: as above
T7 construct: also called P249S-L274F
Procedure: as §1, §2

[8] = biological target: T8, chimeric TfR A03 (human/mouse chimera, UniProt P02786 89-760); test: as above
T8 construct: also called D245E-K261E
Procedure: as §1, §2

[9] = biological target: T9, huTfR with mouse protease-like domain (human/mouse chimera); test: as above
T9 construct: His tag added; also called chimeric protein of human TfR extracellular domain with mouse protease-like domain
T9 chain: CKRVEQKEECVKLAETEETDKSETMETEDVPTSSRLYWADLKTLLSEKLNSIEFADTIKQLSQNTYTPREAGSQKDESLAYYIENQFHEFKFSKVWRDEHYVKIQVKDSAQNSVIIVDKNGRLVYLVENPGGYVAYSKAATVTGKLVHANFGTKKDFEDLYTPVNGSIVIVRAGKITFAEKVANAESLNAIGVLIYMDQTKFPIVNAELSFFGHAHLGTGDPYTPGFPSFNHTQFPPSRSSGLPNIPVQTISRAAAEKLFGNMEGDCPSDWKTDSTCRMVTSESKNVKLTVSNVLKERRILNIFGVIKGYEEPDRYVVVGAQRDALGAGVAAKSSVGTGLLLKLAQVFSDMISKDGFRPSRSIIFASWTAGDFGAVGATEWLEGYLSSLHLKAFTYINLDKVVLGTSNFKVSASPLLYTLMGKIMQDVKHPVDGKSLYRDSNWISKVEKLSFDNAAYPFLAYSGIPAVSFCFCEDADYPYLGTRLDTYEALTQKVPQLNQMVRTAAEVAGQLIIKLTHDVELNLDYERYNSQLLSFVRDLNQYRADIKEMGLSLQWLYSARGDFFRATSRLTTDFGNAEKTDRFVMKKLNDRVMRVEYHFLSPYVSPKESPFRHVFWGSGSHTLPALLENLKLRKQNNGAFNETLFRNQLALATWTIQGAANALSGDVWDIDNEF
Procedure: as §1, §2

[10] = biological target: T10, mouse TfR on CHO cells (mouse, UniProt Q62351 1-763); test: flow cytometry on mouse TfR/CHO cells
T10 construct: also called mouse TfR/CHO
Procedure: Subsequently, an epitope analysis for various types of TfR antibodies was carried out.

[11] = biological target: T11, human EGFR on cells (human, UniProt P00533 25-1210); test: flow cytometry on OE21 cells; x axis PE-A [E]
T11 construct: also called membrane-associated EGFR on OE21 cells

[12] = biological target: T12, human TfR on cells (human, UniProt P02786 1-760); test: flow cytometry of monoclonal phage (scFv) on human TfR/CHO cells
T12 construct: also called human TfR/CHO; human TfFR/CHO cells
Procedure: as §3

[13] = biological target: T13, monkey EGFR-FLAG-Fc (monkey, UniProt P55245 25-638); test: phage ELISA (scFv) on immobilized monkey EGFR-Fc
T13 construct: also called monkey EGFR-Fc; not shown: FLAG-Fc added to the C terminus

[14] = biological target: T14, human EGFR-FLAG-Fc (human, UniProt P00533 25-638); test: phage ELISA (scFv) on immobilized human EGFR-Fc
T14 construct: also called human EGFR-Fc
Procedure: Specifically, it was carried out by adding a phage solution diluted with PBS-T containing 10% Block Ace (manufactured by Dainippon Pharmaceutical Co., Ltd.) to a 96-well immunoplate (NUNC, Inc.) on which an antigen protein was immobilized to allow a reaction to proceed at room temperature for 1 hour, followed by washing with PBS-T, and then, adding an anti-M13 antibody (manufactured by GE Healthcare, Inc.) labeled with horseradish peroxidase diluted with 1% BSA-PBS thereto to allow a reaction to proceed at room temperature for 1 hour.
The confirmation of a clone that specifically recognizes human and monkey EGFR-Fc was carried out by the ELISA method.

[15] = biological target: T11, human EGFR on cells; test: flow cytometry on OE21 cells; x axis Alexa Fluor 488-A [A]
[16] = biological target: T11, human EGFR on cells; test: flow cytometry on OE21 cells; x axis Alexa Fluor 488-A [B]

B1: cyno292 (antibody, V domains shown)
VH: QVQLVQSGGGLVKPGGSLRISCTTSGFPFDGYTMTWVRQAPGKGLEWVSSISNGGSTIFVSDSVRGRFTISRDNAKNSLYLQMNNVGAEDTAVYYCARARDAYGWTLPSDIWGQGTMVTVSS
VL: not shown
notes: also called anti-TfR antibody cyno292
ratio of ELISA binding activity (A450-A570) to chimeric TfR over that to His-huTfR [1]: < 0.2 ratio
ratio of ELISA binding activity (A450-A570) to chimeric TfR over that to His-huTfR [2]: < 0.2 ratio
ratio of ELISA binding activity (A450-A570) to chimeric TfR over that to His-huTfR [3]: < 0.2 ratio
binding result [4]: binds
ratio of ELISA binding activity (A450-A570) to chimeric TfR over that to His-huTfR [5]: ≥ 0.5 ratio
ratio of ELISA binding activity (A450-A570) to chimeric TfR over that to His-huTfR [6]: ≥ 0.5 ratio
ratio of ELISA binding activity (A450-A570) to chimeric TfR over that to His-huTfR [7]: ≥ 0.5 ratio
ratio of ELISA binding activity (A450-A570) to chimeric TfR over that to His-huTfR [8]: ≥ 0.5 ratio
ratio of ELISA binding activity (A450-A570) to chimeric TfR over that to His-huTfR [9]: ≥ 0.5 ratio
binding result [10]: no binding

B2: KME09 (antibody, V domains shown)
VH: QVQLVQSGAEVKKPGSSVKVSCKASGGTFSSFAWGWVRQAPGQGLEWMGEIRPGFGTEIYAQNFQDRVTFITDEATSTTYMELSSLKSEDTAVYYCARGLLRSGYIDNPCDIWGQGTMVTVSS
VL: DIQMTQSPSSLSASVGDRVTITCRASQGISSWLAWYQQKPEKAPKSLIYAASSLQSGVPSRFSGSGSGTDFTLTISSLQPEDFATYFCQQYYNYPYTFGQGTKLEIK
notes: IgG4PE or IgG4PE R409K; also called anti-EGFR antibody KME09
binding result [11]: binds

B3: R327 (antibody, V domains shown)
VH: EVQLVETGGGLVQPGGSLRLSCAASGFSFDKYTMNWVRQAPGKGLEWVSVISNGGVSTDYADSVKGRFTVSRDNSKNTLYLQMNSLRAEDMATYYCARASQPWLYRTGADVWGQGTMVTVSS
VL: not shown
notes: also called anti-TfR antibody R327
ratio of ELISA binding activity (A450-A570) to chimeric TfR over that to His-huTfR [9]: ≥ 0.5 ratio
binding result [10]: no binding

B4: TfR1071 (antibody, V domains shown)
VH: B3 VH with E1Y, T7S, M117L
VL: not shown
notes: also called anti-TfR antibody TfR1071
ratio of ELISA binding activity (A450-A570) to chimeric TfR over that to His-huTfR [9]: ≥ 0.5 ratio
binding result [10]: no binding

B5: TfR1007 (antibody, V domains shown)
VH: EVQLVESGGGLVQPGGSLSLSCAASGFSFKGYSMSWVRQAPGKGLEWVSSLSNGGGSSYYADSVKGRFTISRDNSKNTLYLQMNSLRAEDTAVYYCAKTLGAYYIKSAMDVWGQGTTVTVSS
VL: not shown
notes: also called anti-TfR antibody TfR1007
ratio of ELISA binding activity (A450-A570) to chimeric TfR over that to His-huTfR [9]: ≥ 0.5 ratio

B6: PSM4072 (antibody, V domains shown)
VH: EVQLVETGGGLVQPGGSLRLSCTASGFTFESHAMYWVRQAPGKGLEWVSGISNGGSSTEYADSVRGRFTISRDNSKNTVYLQMNSLRAEDTAVYYCARPRSPYLFYDAAGVWGQGTLVTVSS
VL: not shown
notes: as IgG it has the constant region of human IgG4PE or IgG4PE R409K; also called anti-TfR antibody PSM4072
binding result [4]: binds
binding result [12]: binds

B7: cyno163 (antibody, V domains shown)
VH: B6 VH with T7S, T23A, E30S, S31T, H32Y, Y35S, L117M
VL: not shown
notes: as IgG it has the constant region of human IgG4PE or IgG4PE R409K; also called anti-TfR antibody cyno163
binding result [4]: binds
binding result [12]: binds

B8: E08 (antibody, V domains shown)
VH: EVQLVESGGGLVQPGGSLRLSCAASGFSFNNNAMNWVRQAPGKGLEWVSGIRADGGTTYYADSVKGRFTISRDNSKNTLYLQMNSLRAEDTAVYFCGKTPDWEIFYYAMDAWGQGTTVTVSS
VL: not shown
notes: also called anti-EGFR antibody E08; Clone E08
binding result [13]: binds
binding result [14]: binds
binding result [15]: binds

B9: E12 (antibody, V domains shown)
VH: QVQLVESGGGLVQPGGSLRLSCAASRFTFSAYAMGWVRQAPGKGLEWVSIIDSGGVYTYYADSMKGRFTISRDNSKNTLYLQMNSLRAEDTAVYYCARDHYGVVWGLGDYWGQGTLVTVSS
VL: not shown
notes: also called anti-EGFR antibody E12; Clone E12
binding result [13]: binds
binding result [14]: binds
binding result [16]: binds
